The values that follow come from paper PMC5880795, “Cloning and expression of a novel α-1,3-arabinofuranosidase from Penicillium oxalicum sp. 68” (AMB Express, 2018).

For this data set, the system named is T1, O=[N+]([O-])c1ccc(O[C@@H]2O[C@@H](CO)[C@H](O)[C@H]2O)cc1.
T1 construct: signal peptide (predicted residues 1-30) removed; pPIC9K SnaBI/EcoRI, secreted from Pichia pastoris GS115; no tag mentioned
Nature of the data set: purified protein. To be noted: 20 mM Na-acetate pH 4.5, 37 °C (standard assay; kinetic conditions not restated). It counts as biochemical, Penicillium oxalicum.

PoAbf62A (Penicillium oxalicum 114-2), sequence (chain, as listed by the source): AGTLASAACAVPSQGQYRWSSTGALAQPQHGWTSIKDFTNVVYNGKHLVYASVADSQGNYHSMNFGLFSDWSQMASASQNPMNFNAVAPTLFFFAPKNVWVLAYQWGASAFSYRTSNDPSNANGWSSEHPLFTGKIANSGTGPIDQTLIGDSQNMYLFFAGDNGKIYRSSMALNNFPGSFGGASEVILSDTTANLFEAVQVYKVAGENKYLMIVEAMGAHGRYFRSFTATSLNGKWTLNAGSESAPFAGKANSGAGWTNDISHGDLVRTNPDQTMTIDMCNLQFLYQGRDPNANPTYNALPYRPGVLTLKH

As to PoAbf62A (Penicillium oxalicum 114-2), the Km came to 1360 ± 120 µM and the kcat came to 0.27 ± 0.01 s⁻¹.
